In IntAct's records for PubMed 18555782:

B1: Heat shock protein homolog SSE1 (Saccharomyces cerevisiae), P32589 (parent)
chain: MSTPFGLDLGNNNSVLAVARNRGIDIVVNEVSNRSTPSVVGFGPKNRYLGETGKNKQTSNIKNTVANLKRIIGLDYHHPDFEQESKHFTSKLVELDDKKTGAEVRFAGEKHVFSATQLAAMFIDKVKDTVKQDTKANITDVCIAVPPWYTEEQRYNIADAARIAGLNPVRIVNDVTAAGVSYGIFKTDLPEGEEKPRIVAFVDIGHSSYTCSIMAFKKGQLKVLGTACDKHFGGRDFDLAITEHFADEFKTKYKIDIRENPKAYNRILTAAEKLKKVLSANTNAPFSVESVMNDVDVSSQLSREELEELVKPLLERVTEPVTKALAQAKLSAEEVDFVEIIGGTTRIPTLKQSISEAFGKPLSTTLNQDEAIAKGAAFICAIHSPTLRVRPFKFEDIHPYSVSYSWDKQVEDEDHMEVFPAGSSFPSTKLITLNRTGDFSMAASYTDITQLPPNTPEQIANWEITGVQLPEGQDSVPVKLKLRCDPSGLHTIEEAYTIEDIEVEEPIPLPEDAPEDAEQEFKKVTKTVKKDDLTIVAHTFGLDAKKLNELIEKENEMLAQDKLVAETEDRKNTLEEYIYTLRGKLEEEYAPFASDAEKTKLQGMLNKAEEWLYDEGFDSIKAKYIAKYEELASLGNIIRGRYLAKEEEKKQAIRSKQEASQMAAMAEKLAAQRKAEAEKKEEKKDTEGDVDMD

Variants of: B1
Conditions: with hsp71_yeast SSA1, P10591
Sequence of hsp71_yeast SSA1, P10591 (P10591 whole entry): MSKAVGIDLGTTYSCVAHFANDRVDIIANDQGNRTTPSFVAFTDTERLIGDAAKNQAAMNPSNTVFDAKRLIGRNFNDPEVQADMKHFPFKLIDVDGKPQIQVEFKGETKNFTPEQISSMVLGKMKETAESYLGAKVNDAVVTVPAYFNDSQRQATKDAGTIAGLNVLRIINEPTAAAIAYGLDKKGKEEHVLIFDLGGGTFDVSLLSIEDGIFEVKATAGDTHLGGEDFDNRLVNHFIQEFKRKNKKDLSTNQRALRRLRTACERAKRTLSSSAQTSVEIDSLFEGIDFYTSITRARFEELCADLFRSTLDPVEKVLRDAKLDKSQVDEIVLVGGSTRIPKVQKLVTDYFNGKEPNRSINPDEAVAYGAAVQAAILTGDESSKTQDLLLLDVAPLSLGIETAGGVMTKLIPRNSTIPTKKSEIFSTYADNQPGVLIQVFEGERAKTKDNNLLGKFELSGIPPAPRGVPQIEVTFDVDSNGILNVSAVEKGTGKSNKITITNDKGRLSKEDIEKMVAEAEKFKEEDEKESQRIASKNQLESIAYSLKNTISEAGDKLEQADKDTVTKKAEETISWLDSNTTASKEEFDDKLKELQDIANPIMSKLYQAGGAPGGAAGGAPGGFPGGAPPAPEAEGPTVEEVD

Row | effect of a mutation on the interaction | Variant
1 | decreasing interaction | T365V;N367S
2 | decreasing interaction | D396A
3 | decreasing interaction | A280T;N281A
4 | decreasing interaction | N572Y;E575A
5 | decreasing interaction | F392A;F394A
6 | decreasing interaction | L489A;H490A
7 | decreasing interaction | E554A;M557S;L558S
